Measured values as given in paper PMC3542407 (Journal of biotechnology, 2012).

Experiments:
LlAdhA = LlAdhA (Lactococcus lactis, UniProt Q9CEN0, Y50F/N110S/I212T/L264V); assay: NADH consumption at […] nm; settings: read-out: LlAdhA^29C8 / KM; 200 µM NADH; 100 mM Tris pH 7, 1 mM DTT; 25°C
O=CC=Cc1ccccc1 = assay: purified protein; assay type: biochemical, Lactococcus lactis; settings: 200 µM NADH, 100 mM Tris pH 7, 1 mM DTT, 25°C
O=Cc1ccco1 = assay: purified protein; assay type: biochemical, Lactococcus lactis; settings: 200 µM NADH, 100 mM Tris pH 7, 1 mM DTT, 25°C
CC(C)C=O = assay: purified protein; settings: 200 µM NADH, 100 mM Tris pH 7, 1 mM DTT, 25°C
CC=O = assay: purified protein; settings: 200 µM NADH, 100 mM Tris pH 7, 1 mM DTT, 25°C
O=Cc1ccc(CO)o1 = assay: purified protein; settings: 200 µM NADH, 100 mM Tris pH 7, 1 mM DTT, 25°C

Molecule	Km (LlAdhA) [µM]	Km (O=CC=Cc1ccccc1) [mM]	kcat (O=CC=Cc1ccccc1) [s⁻¹]	kcat/Km (O=CC=Cc1ccccc1) [M⁻¹ s⁻¹]	Km (O=Cc1ccco1) [mM]	kcat (O=Cc1ccco1) [s⁻¹]	kcat/Km (O=Cc1ccco1) [M⁻¹ s⁻¹]	Km (CC(C)C=O) [mM]	kcat (CC(C)C=O) [s⁻¹]	kcat/Km (CC(C)C=O) [M⁻¹ s⁻¹]	Km (CC=O) [mM]	kcat (CC=O) [s⁻¹]	kcat/Km (CC=O) [M⁻¹ s⁻¹]	Km (O=Cc1ccc(CO)o1) [mM]	kcat (O=Cc1ccc(CO)o1) [s⁻¹]	kcat/Km (O=Cc1ccc(CO)o1) [M⁻¹ s⁻¹]
O=Cc1ccco1 [2-furaldehyde]	200	–	–	–	–	–	–	–	–	–	–	–	–	–	–	–
LlAdhA (Lactococcus lactis subsp. lactis Il1403)	–	0.7	27	39000	0.39	22	57000	12 ± 1	30 ± 1	2800 ± 200	0.4	35	94000	22	19	880
LlAdhA (Lactococcus lactis subsp. lactis Il1403; I212T/L264V/N110S/Y50F)	–	–	–	–	–	–	–	0.68 ± 0.07	300 ± 4	440000 ± 50000	0.92	58	63000	0.57	29	51000
LlAdhA (Lactococcus lactis subsp. lactis Il1403; I212T/L264V/Y50F)	–	–	–	–	–	–	–	1.70 ± 0.01	140 ± 1	82000 ± 1000	0.5	31	57000	0.67	23	34000
LlAdhA (Lactococcus lactis subsp. lactis Il1403; L264V/Y50F)	–	–	–	–	–	–	–	1.6 ± 0.2	50 ± 1	32000 ± 4000	–	–	–	–	–	–
